The source of these data is the Immune Epitope Database (IEDB).

The target in one assay is HLA-A*01:01. Put plainly: IEDB peptide-MHC binding, purified MHC/direct/fluorescence; filed as Kd, often an IC50 or EC50 that approximates it; ≥ and ≤ were set here for values at or beyond the usual limits of such assays.
Another assay has as its target HLA-A*11:01. Described as above.
For another assay, the target named is HLA-A*24:03. The description is as above. Conditions: source organism: Francisella tularensis subsp. holarctica LVS.
Assay [1] has as its target HLA-B*07:02. The assay is described as above.
In assay [2] the target is HLA-B*08:01. The assay is described as above.
The target of the next assay is HLA-B*08:02. The assay is described as above.
Assay [3] deals with HLA-B*15:01. The assay is described as above.
The target in a further assay is HLA-B*15:09. Described as above. The settings on record: source organism: Francisella tularensis subsp. tularensis FSC033.
The target in assay [4] is HLA-B*18:01. Described as above.
Another assay addresses HLA-B*58:01. The description is as above.
Assay [5] has as its target HLA-A*02:01. Briefly: IEDB peptide-MHC binding, purified MHC/competitive/fluorescence; filed as Kd, often an IC50 or EC50 that approximates it; ≥ and ≤ were set here for values at or beyond the usual limits of such assays. Conditions: source organism: Francisella tularensis subsp. tularensis FSC198.
The next assay has as its target HLA-A*26:02. The description is as above. Conditions: source organism: Francisella tularensis subsp. tularensis FSC198.
A further assay concerns the target HLA-A*26:03. The assay is described as above.
The target of assay [6] is HLA-A*31:01. The assay is described as above. The settings on record: source organism: Francisella tularensis subsp. tularensis FSC198.
The next assay concerns the target HLA-A*68:02. The description is as above.
The target in assay [7] is HLA-B*15:17. The assay is described as above.
The target in assay [8] is HLA-B*57:01. The assay is described as above. The settings on record: source organism: Francisella tularensis subsp. tularensis FSC198.
Assay [9] addresses HLA-A*02:01. Put plainly: IEDB peptide-MHC binding, purified MHC/direct/fluorescence; filed as Kd, often an IC50 or EC50 that approximates it; ≥ and ≤ were set here for values at or beyond the usual limits of such assays.
In another assay the target is HLA-A*03:01. Described as above.
Assay [10] addresses HLA-A*31:01. Described as above.
Another assay has as its target HLA-A*69:01. The assay is described as above.
The target in another assay is HLA-B*08:03. Described as above.
For another assay, the target named is HLA-B*27:05. The assay is described as above.
The target in another assay is HLA-B*40:01. The assay is described as above.
In another assay the target is HLA-B*48:01. The assay is described as above.
In a further assay the target is HLA-C*12:03. The description is as above. Conditions: source organism: Vaccinia virus Tian Tan.
In a further assay the target is HLA-A*02:06. Put plainly: IEDB peptide-MHC binding, purified MHC/competitive/fluorescence; filed as Kd, often an IC50 or EC50 that approximates it; ≥ and ≤ were set here for values at or beyond the usual limits of such assays. The settings on record: source organism: Vaccinia virus Tian Tan.
The target in assay [11] is HLA-A*26:01. The description is as above. The settings on record: source organism: Vaccinia virus Tian Tan.
The target of assay [12] is HLA-B*15:01. Described as above.
The target of assay [13] is HLA-B*18:01. The description is as above. Conditions: source organism: Vaccinia virus Tian Tan.
The next assay has as its target HLA-B*35:01. Described as above. The settings on record: source organism: Vaccinia virus Tian Tan.
Assay [14] concerns the target HLA-A*30:01. Put plainly: IEDB peptide-MHC binding, purified MHC/competitive/radioactivity; filed as Kd, often an IC50 or EC50 that approximates it; ≥ and ≤ were set here for values at or beyond the usual limits of such assays. Conditions: source organism: Vaccinia virus WR.
In the next assay the target is HLA-A*24:02. Briefly: IEDB peptide-MHC binding, purified MHC/direct/fluorescence; filed as Kd, often an IC50 or EC50 that approximates it; ≥ and ≤ were set here for values at or beyond the usual limits of such assays.
In another assay the target is HLA-B*44:02. Described as above. The settings on record: source organism: Shigella flexneri.
Assay [15] deals with HLA-A*26:01. The assay is described as above. Conditions: source organism: Mycobacterium tuberculosis C.
In assay [16] the target is HLA-B*15:17. Described as above. The settings on record: source organism: Mycobacterium tuberculosis.
In a further assay the target is HLA-B*46:01. Described as above. The settings on record: source organism: Mycobacterium tuberculosis.
In assay [17] the target is HLA-B*57:01. The description is as above. Conditions: source organism: Mycobacterium tuberculosis.
The target of assay [18] is HLA-A*30:01. Briefly: IEDB peptide-MHC binding, purified MHC/competitive/fluorescence; filed as Kd, often an IC50 or EC50 that approximates it; ≥ and ≤ were set here for values at or beyond the usual limits of such assays. Conditions: source organism: Mycobacterium tuberculosis C.
For assay [19], the target named is HLA-B*07:02. The description is as above. Conditions: source organism: Mycobacterium tuberculosis C.
Assay [20] has as its target HLA-B*08:01. The assay is described as above. Conditions: source organism: Mycobacterium tuberculosis C.
The mark [21] stands for this setting: source organism: Francisella tularensis subsp. holarctica LVS.
The mark [22] stands for this setting: source organism: Francisella tularensis subsp. tularensis FSC033.
The mark [23] stands for this setting: source organism: Francisella tularensis subsp. tularensis FSC198.
The mark [24] stands for this setting: source organism: Camelpox virus CMS.
The mark [25] stands for this setting: source organism: Vaccinia virus Tian Tan.
Setting [26] is: source organism: Shigella flexneri.
Setting [27] is: source organism: Mycobacterium tuberculosis.
Where [28] appears, read: source organism: Mycobacterium tuberculosis C.

As for IYTVIYYIF, the Kd with HLA-A*01:01 (setting [21]) was at least 20 µM; with HLA-A*11:01 (setting [21]), at least 20 µM; with HLA-A*24:03, 0.27 µM; with HLA-B*07:02 [1] (setting [21]), at least 20 µM; with HLA-B*08:01 [2] (setting [22]), at least 20 µM; in the assay with HLA-B*08:02 (setting [22]), at least 20 µM. Moreover, the Kd is at least 20 µM in the assay with HLA-B*15:01 [3] (setting [21]); at least 20 µM in the assay with HLA-B*15:09; 8.93 µM in the assay with HLA-B*18:01 [4] (setting [22]); 0.15 µM in the assay with HLA-B*58:01 (setting [22]); at least 20 µM with HLA-A*02:01 [5]; 1.13 µM with HLA-A*26:02. The Kd with HLA-A*26:03 (setting [23]) was at least 20 µM; in the assay with HLA-A*31:01 [6], at least 20 µM; in the assay with HLA-A*68:02 (setting [23]), 3.96 µM; with HLA-B*15:17 [7] (setting [23]) it was 0.439 µM; in the assay with HLA-B*57:01 [8], at least 20 µM.
KVFFGPIYY: the Kd was at least 20 µM in the assay with HLA-A*01:01 (setting [24]); at least 20 µM with HLA-A*02:01 [9] (setting [24]); 0.029 µM in the assay with HLA-A*03:01 (setting [24]); 0.022 µM with HLA-A*11:01 (setting [24]); 1.29 µM with HLA-A*31:01 [10] (setting [24]); at least 20 µM with HLA-A*69:01 (setting [24]). In addition, the Kd in the assay with HLA-B*07:02 [1] (setting [24]), with HLA-B*08:01 [2] (source organism: Variola virus), with HLA-B*08:03 (source organism: Variola virus), with HLA-B*27:05 (setting [24]), in the assay with HLA-B*40:01 (setting [24]) and in the assay with HLA-B*48:01 (setting [24]) was at least 20 µM each time. Further, the Kd in the assay with HLA-B*58:01 (setting [24]) was 0.021 µM; with HLA-C*12:03, 0.045 µM; with HLA-A*02:06, 1.8 µM; in the assay with HLA-A*26:01 [11], 3 µM; with HLA-A*26:03 (setting [25]) it was at least 20 µM; with HLA-A*68:02 (setting [25]), at least 20 µM. In addition, the Kd with HLA-B*15:01 [12] (setting [25]) is 0.423 µM; with HLA-B*15:17 [7] (setting [25]), 0.0216 µM; with HLA-B*18:01 [13], at least 20 µM; in the assay with HLA-B*35:01, 0.333 µM; with HLA-A*30:01 [14], 0.154 µM.
As to LSSIGIPAY, the Kd with HLA-A*01:01 (setting [26]) is 0.366 µM; with HLA-A*02:01 [9] (setting [26]), at least 20 µM; with HLA-A*03:01 (setting [26]) it was at least 20 µM; with HLA-A*11:01 (setting [26]), at least 20 µM; with HLA-A*24:02 (setting [26]), at least 20 µM; with HLA-A*31:01 [10] (setting [26]), at least 20 µM. In addition, the Kd was at least 20 µM with HLA-A*69:01 (setting [26]); at least 20 µM with HLA-B*07:02 [1] (setting [26]); 0.304 µM with HLA-B*15:01 [3] (setting [26]); at least 20 µM with HLA-B*27:05 (setting [26]); at least 20 µM with HLA-B*40:01 (setting [26]); at least 20 µM with HLA-B*44:02. The same sequence gave a Kd in the assay with HLA-B*58:01 (setting [26]) of 0.178 µM.
For the sequence RYLNIYQLW, the Kd with HLA-A*24:02 (source organism: Cryptosporidium parvum Iowa II) worked out at 0.002 µM.
On to TIHLATAPK, for which the Kd with HLA-A*01:01 (setting [27]) is at least 20 µM; with HLA-A*11:01 (setting [27]) it was 0.0087 µM; in the assay with HLA-A*26:01 [15], at least 20 µM; in the assay with HLA-A*31:01 [10] (setting [27]) it was 0.653 µM; with HLA-A*69:01 (setting [27]), 2.33 µM; with HLA-B*08:02 (setting [28]) it was at least 20 µM. The Kd with HLA-B*08:03 (setting [28]), in the assay with HLA-B*15:17 [16], with HLA-B*18:01 [4] (setting [27]), in the assay with HLA-B*27:05 (setting [27]), with HLA-B*40:01 (setting [27]) and in the assay with HLA-B*46:01 was at least 20 µM in each case. The Kd with HLA-B*48:01 (setting [27]) is at least 20 µM; with HLA-B*57:01 [17], at least 20 µM; in the assay with HLA-B*58:01 (setting [27]), at least 20 µM; with HLA-A*26:03 (setting [28]), at least 20 µM; in the assay with HLA-A*30:01 [18] it was 0.0002 µM; with HLA-A*68:02 (setting [28]), 0.76 µM. The Kd with HLA-B*07:02 [19], with HLA-B*08:01 [20] and with HLA-B*15:01 [12] (setting [28]) was at least 20 µM in each case.
